The record followed here is paper PMC3373496, “An Evolutionarily Conserved Enhancer Regulates Bmp4 Expression in Developing Incisor and Limb Bud”.

The target of one data set is GST-Msx2 (UniProt Q03358 1-267). In words: EMSA; 1X phosphate buffer, 10% glycerol, 0.3 mg/ul BSA, 0.1 ug/ul DNaseI-digested poly[dG-dC], 20 ul, on ice 10 min + 20 min with probe; 6% native PAGE, 1x TBE, 4 C. The note with it: protein: recombinant; tags: N-terminal GST (pGEX3X); label: 32P 5' end (PNK) when probe; blunt. A general note: In EMSA bound probe runs differently from free probe, usually more slowly.
GST-Msx2, sequence (Q03358 whole entry): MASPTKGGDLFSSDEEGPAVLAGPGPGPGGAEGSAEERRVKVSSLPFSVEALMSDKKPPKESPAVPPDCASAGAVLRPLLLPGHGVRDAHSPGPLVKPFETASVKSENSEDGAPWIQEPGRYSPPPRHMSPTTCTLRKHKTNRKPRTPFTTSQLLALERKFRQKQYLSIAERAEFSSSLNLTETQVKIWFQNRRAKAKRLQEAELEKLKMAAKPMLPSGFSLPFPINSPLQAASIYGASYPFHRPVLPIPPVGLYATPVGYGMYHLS

For a further data set, the target named is GST-Pitx1 (UniProt P70314 1-315). In words: EMSA; 1X phosphate buffer, 10% glycerol, 0.1 ug/ul DNaseI-digested poly[dG-dC], 20 ul, on ice 10 min + 20 min with probe; 6% native PAGE, 1x TBE, 4 C. The settings on record: protein: recombinant; tags: N-terminal GST (pGEX3X); label: 32P 5' end (PNK) when probe; blunt.

B1: WTMsxBSCONS3 (dsDNA)
DNA 1: GACCCTATGTAATTGCATTCCTGAA
DNA 2: TTCAGGAATGCAATTACATAGGGTC
For B1, the binding result with GST-Msx2 was “binds”.

B2: Bicoid (dsDNA)
DNA 1: TCATGCCTGTAATCCCAGCACTCAG
DNA 2: CTGAGTGCTGGGATTACAGGCATGA
In the case of B2, the binding result in the data set with GST-Pitx1 is listed as “binds”.

B3: MutPitxBSCONS3 (dsDNA)
DNA 1: AGTTCCCTACAACGCATTTACCGTG
DNA 2: CACGGTAAATGCGTTGTAGGGAACT
For B3, the binding result with GST-Pitx1 is on record as “no binding”.

B4: MutMsxBSCONS3 (dsDNA)
DNA 1: GACCCTATCCGGCCTCATTCCTGAA
DNA 2: TTCAGGAATGAGGCCGGATAGGGTC
On to B4, for which the binding result in the data set with GST-Msx2 is recorded as “no binding”.

B5: WTPitxBSCONS3 (dsDNA)
DNA 1: AGTTCCCTACATAATCCTTACCGTG
DNA 2: CACGGTAAGGATTATGTAGGGAACT
B5: the binding result in the data set with GST-Pitx1 is “binds”.
